{"source": "paper PMC12693483", "about": "“A screen for synthetic genetic interactions with the Saccharomyces cerevisiae hrq1ΔN allele”", "binders": {"B1": {"name": "poly(dT) 30mer (ssDNA)", "DNA": "TTTTTTTTTTTTTTTTTTTTTTTTTTTTTT"}}, "target": "T1, Hrq1 (Saccharomyces cerevisiae, UniProt Q05549 1-1077)", "T1 sequence": "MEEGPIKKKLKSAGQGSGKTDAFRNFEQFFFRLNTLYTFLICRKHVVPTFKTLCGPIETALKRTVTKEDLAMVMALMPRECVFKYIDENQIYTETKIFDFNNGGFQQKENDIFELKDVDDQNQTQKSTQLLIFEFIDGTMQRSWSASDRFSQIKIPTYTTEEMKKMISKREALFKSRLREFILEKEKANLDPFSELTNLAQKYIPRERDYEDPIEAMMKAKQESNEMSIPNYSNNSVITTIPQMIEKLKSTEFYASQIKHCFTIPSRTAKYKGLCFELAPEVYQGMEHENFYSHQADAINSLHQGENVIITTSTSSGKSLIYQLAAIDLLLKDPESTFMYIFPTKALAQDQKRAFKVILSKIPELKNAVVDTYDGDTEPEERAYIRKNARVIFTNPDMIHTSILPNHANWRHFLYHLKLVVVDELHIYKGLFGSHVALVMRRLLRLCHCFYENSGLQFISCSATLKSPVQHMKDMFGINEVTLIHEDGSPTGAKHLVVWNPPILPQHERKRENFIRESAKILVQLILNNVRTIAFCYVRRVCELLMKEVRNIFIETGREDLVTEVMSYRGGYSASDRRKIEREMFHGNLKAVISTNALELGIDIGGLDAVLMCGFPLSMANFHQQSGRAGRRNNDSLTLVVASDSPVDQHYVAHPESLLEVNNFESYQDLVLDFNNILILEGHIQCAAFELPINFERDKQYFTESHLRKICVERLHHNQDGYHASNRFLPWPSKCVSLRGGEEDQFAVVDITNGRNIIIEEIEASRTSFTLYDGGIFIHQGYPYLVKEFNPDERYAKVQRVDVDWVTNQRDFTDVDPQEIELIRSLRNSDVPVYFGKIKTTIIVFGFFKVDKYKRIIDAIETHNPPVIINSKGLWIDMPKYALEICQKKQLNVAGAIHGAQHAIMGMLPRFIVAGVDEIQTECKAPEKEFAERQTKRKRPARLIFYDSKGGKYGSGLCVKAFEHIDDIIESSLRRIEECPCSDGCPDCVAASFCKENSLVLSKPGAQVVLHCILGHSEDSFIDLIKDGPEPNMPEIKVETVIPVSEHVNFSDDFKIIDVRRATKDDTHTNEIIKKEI", "experiment": "EMSA; 0.2-5 nM protein; 7.5 mM MgOAc; no ATP stated; EMSA: 0.1 nM labelled DNA, 25 mM Na-HEPES pH 8.0, 5% glycerol, 50 mM NaOAc pH 7.6, 150 µM NaCl, 7.5 mM MgOAc, 0.01% Tween-20, 30 min at 30 °C; 8% 19:1 gel in 1x TBE", "conditions": "protein: recombinant; label: 5'-32P; single strand"}
{"binder": "B1", "values": [{"measurement": "binding result", "result": "binds"}]}
